The record followed here is paper PMC9062193.

The labels stand for the following.
B1: YFL-4 (Lac-A1, Lac1-4), truncated (ssDNA)
DNA: GCAGGACACCGTAACACGGGCTGATGCTCTCTTTATTTTACCTAAATAAAGTGTCCTGC
B2: YFL-7 (Lac-A6), truncated (ssDNA)
DNA: GCAGGACACCGTAACGGGTGCACACTCTTATTTTTACACGAGCCAAAAATATGTCCTGC
B3: YFL-5 (Lac-A3, Lac8-2), truncated (ssDNA)
DNA: CAGGCAGGACACCGTAACCGGGCATTTGCTCTCAATTTAGTCTCAAATTGTGGCCTGCCTG

Sequence of lactoferrin (Lac) (P24627 20-708): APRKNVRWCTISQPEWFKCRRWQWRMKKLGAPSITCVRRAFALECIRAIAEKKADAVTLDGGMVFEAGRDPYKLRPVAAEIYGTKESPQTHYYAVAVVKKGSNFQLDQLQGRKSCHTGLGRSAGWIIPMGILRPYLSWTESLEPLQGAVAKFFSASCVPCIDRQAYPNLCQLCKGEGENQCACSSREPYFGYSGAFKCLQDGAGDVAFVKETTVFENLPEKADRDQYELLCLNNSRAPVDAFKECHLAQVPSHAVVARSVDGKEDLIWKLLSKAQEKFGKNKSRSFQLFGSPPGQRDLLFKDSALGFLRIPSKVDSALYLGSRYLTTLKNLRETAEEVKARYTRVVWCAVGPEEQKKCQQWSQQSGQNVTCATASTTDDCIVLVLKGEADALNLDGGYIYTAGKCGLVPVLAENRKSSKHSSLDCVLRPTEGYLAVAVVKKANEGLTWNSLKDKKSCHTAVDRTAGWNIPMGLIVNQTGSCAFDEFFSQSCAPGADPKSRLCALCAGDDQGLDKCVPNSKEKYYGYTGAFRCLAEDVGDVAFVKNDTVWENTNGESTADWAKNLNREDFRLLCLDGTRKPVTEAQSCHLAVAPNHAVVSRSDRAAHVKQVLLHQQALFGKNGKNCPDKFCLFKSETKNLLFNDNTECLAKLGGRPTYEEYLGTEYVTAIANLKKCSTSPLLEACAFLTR

This series addresses lactoferrin (Lac) (bovine? ("from bovine milk"), UniProt P24627 20-708). Description: protein microarray.
The molecule B1 gave a binding signal of 2150 fluorescence intensity.
The molecule AGGCAGGACACCGTAACCGGTGCATCTATGGCTACTAGCTTTTCCTGCCT (ssDNA) [YFL-1 (Lac-6a), truncated] came in with a binding signal of 1780 fluorescence intensity.
In the case of AGGCAGGACACCGTAACCGGTGCATCTATGGCTACTAGCTCTTCCTGCCT (ssDNA) [YFL-6 (Lac-A4), truncated] it was 2840 fluorescence intensity; in that of B2, 2490 fluorescence intensity.
The molecule B3 showed a binding signal of 2240 fluorescence intensity.
